Test results reported in patent publication US20250304927A1, “PRO-PEPTIDE VARIANTS FOR MODULATING ACTIVITY OF TRANSGLUTAMINASES” (CURIE CO. INC., priority 2022, published 2025).

T1: thermostable variant of Streptomyces mobaraensis transglutaminase (Streptomyces mobaraensis, UniProt P81453 79-407)
T1 sequence: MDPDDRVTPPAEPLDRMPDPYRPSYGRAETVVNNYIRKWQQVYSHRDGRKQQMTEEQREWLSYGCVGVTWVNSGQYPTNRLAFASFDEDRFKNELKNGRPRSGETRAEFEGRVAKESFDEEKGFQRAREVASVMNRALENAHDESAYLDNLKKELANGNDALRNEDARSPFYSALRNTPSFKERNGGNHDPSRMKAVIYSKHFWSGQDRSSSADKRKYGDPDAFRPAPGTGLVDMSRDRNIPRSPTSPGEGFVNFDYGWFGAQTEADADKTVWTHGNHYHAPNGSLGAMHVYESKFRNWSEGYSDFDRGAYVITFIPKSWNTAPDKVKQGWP


The binders below were run against T1, thermostable variant of Streptomyces … (assay: cell-based or functional assay).

| Binder | Improvement in pH responsiveness of inhibitory peptide relative to WT [fold] |
| --- | --- |
| MDNGAGEETKSYAETYRLTADDVVNINALNESAPAASSAGPSFRAP [pro-peptide variant A24V] | > 5 |
| MDNGAGEETKSYAETYRLTADDVANINALNESAPAASSAGPSFRAD [pro-peptide variant P46D] | > 1.2 |
| MDNGAGEETKSYAETYRLTADDVANINALNESAPAASFAGPSFRAP [pro-peptide variant S38F] | > 1.2 |
| MDNGAGEETKSYAETYRLTADDVANINALNESAPAASSAGPSFRAK [pro-peptide variant P46K] | > 1.2 |
| MDNGAGEETKSYAETYRLTADDVANINALNESAPAASSAGPSFRAQ [pro-peptide variant P46Q] | > 1.2 |
| MDNGAGEETKSYAETYRLTADDVANINALNESAPAASSAGPSFRAV [pro-peptide variant P46V] | > 1.2 |
| MDNGAGEETKSYAETYRLTADDVANINALNESAPAASHAGPSFRAP [pro-peptide variant S38H] | > 1.2 |
| MDNGAGEETKSYAETYRLTADDVANINALNESAPAASSAGPSFRAC [pro-peptide variant P46C] | > 1.2 |
| MDNGAGEETKSYAETYRLTADDVANINALNESAPAASSAGPSFRAL [pro-peptide variant P46L] | > 1.2 |
| MDNGAGEETKSYAETYRLTADDVANINALNESAPAASSAGPSFRAN [pro-peptide variant P46N] | > 5 |
| MDNGAGEETKSYAETYRLTADDVANINALNESAPAASSAGPSFRAE [pro-peptide variant P46E] | > 1.2 |
| MDNGAGEETKSYAETYRLTADDVANINALNESAPAASSAGPSFRAS [pro-peptide variant P46S] | > 1.2 |
| MDNGAGEETKSYAETYRLTADDVANINALNESAPAASSAGPSFRAR [pro-peptide variant P46R] | > 1.2 |
| MDNGAGEETKSYAETYRLTADDVANINALNESAPAASSAGPSFRAA [pro-peptide variant P46A] | > 1.2 |
| MDNGAGEETKSYAETYRLTADDVANINALNESAPAASTAGPSFRAP [pro-peptide variant S38T] | > 1.2 |
| MDNGAGEETKSYAETYRLTADDVANINALNESAPAASVAGPSFRAP [pro-peptide variant S38V] | > 1.2 |
| MDNGAGEETKSYAETYRLTADDVANINALNESAPAASSAGPSFRAW [pro-peptide variant P46W] | > 1.2 |
| MDNGAGEETKSYAETYRLTADDVANINALNESAPAASSAGPSFRAI [pro-peptide variant P46I] | > 1.2 |

Biological target: T1, thermostable variant of Streptomyces …
Assay: cell-based or functional assay
Remark: another data set of the same source

| Binder | Improvement in binding affinity of inhibitory peptide relative to WT [fold] |
| --- | --- |
| MDNGAGEETKSYAETYRLTADDVVNINALNESAPAASSAGPSFRAP [pro-peptide variant A24V] | > 1.2 |
| MDNGAGEETKSYAETYRLTADDVANINALNESAPAASSAGPSFRAD [pro-peptide variant P46D] | > 1.2 |
| MDNGAGEETKSYAETYRLTADDVANINALNESAPAASFAGPSFRAP [pro-peptide variant S38F] | > 1.2 |
| MDNGAGEETKSYAETYRLTADDVANINALNESAPAASSAGPSFRAK [pro-peptide variant P46K] | > 1.2 |
| MDNGAGEETKSYAETYRLTADDVANINALNESAPAASSAGPSFRAQ [pro-peptide variant P46Q] | > 1.2 |
| MDNGAGEETKSYAETYRLTADDVANINALNESAPAASSAGPSFRAV [pro-peptide variant P46V] | > 1.2 |
| MDNGAGEETKSYAETYRLTADDVANINALNESAPAASHAGPSFRAP [pro-peptide variant S38H] | > 1.2 |
| MDNGAGEETKSYAETYRLTADDVANINALNESAPAASSAGPSFRAC [pro-peptide variant P46C] | > 1.2 |
| MDNGAGEETKSYAETYRLTADDVANINALNESAPAASSAGPSFRAL [pro-peptide variant P46L] | > 1.2 |
| MDNGAGEETKSYAETYRLTADDVANINALNESAPAASSAGPSFRAN [pro-peptide variant P46N] | > 1.2 |
| MDNGAGEETKSYAETYRLTADDVANINALNESAPAASSAGPSFRAE [pro-peptide variant P46E] | > 1.2 |
| MDNGAGEETKSYAETYRLTADDVANINALNESAPAASSAGPSFRAS [pro-peptide variant P46S] | > 1.2 |
| MDNGAGEETKSYAETYRLTADDVANINALNESAPAASSAGPSFRAR [pro-peptide variant P46R] | > 1.2 |
| MDNGAGEETKSYAETYRLTADDVANINALNESAPAASSAGPSFRAA [pro-peptide variant P46A] | > 1.2 |
| MDNGAGEETKSYAETYRLTADDVANINALNESAPAASTAGPSFRAP [pro-peptide variant S38T] | > 1.2 |
| MDNGAGEETKSYAETYRLTADDVANINALNESAPAASVAGPSFRAP [pro-peptide variant S38V] | > 1.2 |
| MDNGAGEETKSYAETYRLTADDVANINALNESAPAASSAGPSFRAW [pro-peptide variant P46W] | > 1.2 |
| MDNGAGEETKSYAETYRLTADDVANINALNESAPAASSAGPSFRAI [pro-peptide variant P46I] | > 1.2 |

Biological target: T1, thermostable variant of Streptomyces …
Assay: cell-based or functional assay
Remark: another data set of the same source

| Binder | Reduction in binding affinity of inhibitory peptide relative to WT [fold] |
| --- | --- |
| MDNGAGEETKSYAETYRLTAD [pro-peptide truncation variant ΔD22-P46] | > 1.2 |
| MDNGAGEETKSYAETYRLTADPVANINALNESAPAASSAGPSFRAP [pro-peptide variant D22P] | > 1.2 |
| MDNGAGEETKSYAETYRLTADDVPNINALNESAPAASSAGPSFRAP [pro-peptide variant A24P] | > 5 |
| MDNGAGEETKSYAETYRLTADYVANINALNESAPAASSAGPSFRAP [pro-peptide variant D22Y] | > 1.2 |
| MDNGAGEETKSYAETYRLTADDVANENALNESAPAASSAGPSFRAP [pro-peptide variant I26E] | > 1.2 |
| MDNGAGEETKSYAHTYRLTADDVANINALNESAPAASSAGPSFRAP [pro-peptide variant E14H] | > 1.2 |
| MDNGAGEETKHYAETYRLTADDVANINALNESAPAASSAGPSFRAP [pro-peptide variant S11H] | > 1.2 |
| MDNGAGEETKYYAETYRLTADDVANINALNESAPAASSAGPSFRAP [pro-peptide variant S11Y] | > 1.2 |
| MDNGAGEETKSYAETYRLTADDVANANALNESAPAASSAGPSFRAP [pro-peptide variant I26A] | > 1.2 |
| MDNGAGEETKSYAETYRLTADDVANINALNESAPAASDAGPSFRAP [pro-peptide variant S38D] | > 1.2 |
| MDNGAGEETKSSAETYRLTADDVANINALNESAPAASSAGPSFRAP [pro-peptide variant Y12S] | > 5 |
| MDNGAGEETKSYAETYRLTADDVENINALNESAPAASSAGPSFRAP [pro-peptide variant A24E] | > 1.2 |
| MDNGAGEETKSYAETYRLTADDVANINALNESAPAASYAGPSFRAP [pro-peptide variant S38Y] | > 1.2 |
| MDNGAGEETKGYAETYRLTADDVANINALNESAPAASSAGPSFRAP [pro-peptide variant S11G] | > 5 |
| MDNGAGEETKSYAATYRLTADDVANINALNESAPAASSAGPSFRAP [pro-peptide variant E14A] | > 1.2 |
| MDNGAGEETCSYAETYRLTADDVANINALNESAPAASSAGPSFRAP [pro-peptide variant K10C] | > 1.2 |
| MDNGAGEETKSPAETYRLTADDVANINALNESAPAASSAGPSFRAP [pro-peptide variant Y12P] | > 1.2 |
| MDNGAGEETKSYADTYRLTADDVANINALNESAPAASSAGPSFRAP [pro-peptide variant E14D] | > 1.2 |
| MDNGAGEETKSYAETYRETADDVANINALNESAPAASSAGPSFRAP [pro-peptide variant L18E] | > 1.2 |
| MDNGAGEETKSYACTYRLTADDVANINALNESAPAASSAGPSFRAP [pro-peptide variant E14C] | > 1.2 |
| MDNGAGEETKSYAETYRLTADDVANINALNESAPAASPAGPSFRAP [pro-peptide variant S38P] | > 1.2 |
| MDNGAGEETKSYAETYRSTADDVANINALNESAPAASSAGPSFRAP [pro-peptide variant L18S] | > 1.2 |
| MDNGAGEETKSYAETYRLTADQVANINALNESAPAASSAGPSFRAP [pro-peptide variant D22Q] | > 1.2 |
| MDNGAGEETKSYAETYRLTADRVANINALNESAPAASSAGPSFRAP [pro-peptide variant D22R] | > 1.2 |
